Experimental data published in PMC3896488, “Complex Regulation of PKCβ2 and PDK-1/AKT by ROCK2 in Diabetic Heart” (PLoS ONE, 2014).

Target: Protein kinase C β2 (rat (endogenous in Wistar rat heart), UniProt P68403-2 1-673)
Assay: cell-based or functional assay

Protein kinase C β2, sequence (P68403 other isoform, or with tags, fused parts or gaps): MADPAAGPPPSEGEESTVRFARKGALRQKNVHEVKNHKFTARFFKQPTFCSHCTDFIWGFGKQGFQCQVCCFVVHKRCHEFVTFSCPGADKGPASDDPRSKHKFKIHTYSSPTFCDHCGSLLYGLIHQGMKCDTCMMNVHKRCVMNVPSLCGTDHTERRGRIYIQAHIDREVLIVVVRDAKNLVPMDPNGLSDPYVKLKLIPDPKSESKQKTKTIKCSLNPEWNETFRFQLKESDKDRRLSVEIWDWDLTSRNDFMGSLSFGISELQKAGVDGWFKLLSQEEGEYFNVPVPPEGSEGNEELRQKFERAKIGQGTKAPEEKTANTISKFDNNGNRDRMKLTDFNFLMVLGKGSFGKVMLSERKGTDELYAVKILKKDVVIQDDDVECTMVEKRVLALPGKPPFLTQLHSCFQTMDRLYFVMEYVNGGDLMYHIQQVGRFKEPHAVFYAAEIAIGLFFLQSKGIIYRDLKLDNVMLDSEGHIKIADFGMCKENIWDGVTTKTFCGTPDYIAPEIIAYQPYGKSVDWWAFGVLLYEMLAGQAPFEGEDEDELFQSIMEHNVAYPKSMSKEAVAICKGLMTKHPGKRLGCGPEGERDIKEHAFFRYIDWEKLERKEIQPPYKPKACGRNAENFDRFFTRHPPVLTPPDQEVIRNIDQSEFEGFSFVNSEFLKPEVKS

in vitro phosphorylation of dephosphorylated PKCβ2 at T641 with against without active ROCK2 (molar ratio 1:30, 400 µM ATP, 37°C, 45 min), Western blot: ~2 fold
B1: ROCK2 (enzyme, rat (endogenous in Wistar rat heart), UniProt Q62868 1-1388, looked up)
chain: MSRPPPTGKMPGAPEAAAGDGAGAGRQRKLEALIRDPRSPINVESLLDGLNSLVLDLDFPALRKNKNIDNFLNRYEKIVKKIRGLQMKAEDYDVVKVIGRGAFGEVQLVRHKASQKVYAMKLLSKFEMIKRSDSAFFWEERDIMAFANSPWVVQLFCAFQDDRYLYMVMEYMPGGDLVNLMSNYDVPEKWAKFYTAEVVLALDAIHSMGLIHRDVKPDNMLLDKHGHLKLADFGTCMKMDETGMVHCDTAVGTPDYISPEVLKSQGGDGYYGRECDWWSVGVFLFEMLVGDTPFYADSLVGTYSKIMDHKNSLCFPEDTEISKHAKNLICAFLTDREVRLGRNGVEEIKSASFFKNDQWNWDNIRETAAPVVPELSSDIDSSNFDDIEDDKGDVETFPIPKAFVGNQLPFIGFTYFRENLLLSDSPPCRENDAIQTRKSEESQEIQKKLYALEEHLSSEVQAKEELEQKCKSINTRLEKTAKELEEEITFRKNVESTLRQLEREKALLQHKNAEYQRKADHEADKKRNLENDVNSLKDQLEDLKKRNQSSQISTEKVNQLQKQLDEANALLRTESDTAARLRKTQAESSKQIQQLESNNRDLQDKNCLLETAKLKLEKEFINLQSALESERRDRTHGSEIINDLQGRISGLEEDLKTGKTLLAKVELEKRQLQEKLTDLEKEKSNMEIDMTYQLKVIQQSLEQEEAEHKTTKARLADKNKIYESIEEAKSEAMKEMEKKLLEERSLKQKVENLLLEAEKRCSILDCDLKQSQQKLNELLKQKDVLNEDVRNLTLKIEQETQKRCLMQNDLKMQTQQVNTLKMSEKQIKQENNHLMEMKMNLEKQNAELRKERQDADGQMKELQDQLEAEQYFSTLYKTQVRELKEENEEKTKLCKELQQKKQDLQDERDSLAAQLEITLTKADSEQLARSIAEEQYSDLEKEKIMKELEIKEMMARHKQELTEKDATIASLEETNRTLTSDVANLANEKEELNNKLKDTQEQLSKLKDEEISAAAIKAQFEKQLLTERTLKTQAVNKLAEIMNRKEPVKRGSDTDVRRKEKENRKLHMELKSEREKLTQQMIKYQKELNEMQAQIAEESQIRIELQMTLDSKDSDIEQLRSQLQALHIGMDSSSIGSGPGDAEPDDGFPESRLEGWLSLPVRNNTKKFGWVKKYVIVSSKKILFYDSEQDKEQSNPYMVLDIDKLFHVRPVTQTDVYRADAKEIPRIFQILYANEGESKKEPEFPVEPVGEKSNYICHKGHEFIPTLYHFPTNCEACMKPLWHMFKPPPALECSRCHIKCHKDHMDKKEEIIAPCKVYYDISSAKNLLLLANSTEEQQKWVSRLVKKIPKKPPAPDPFARSSPRTSMKIQQNQSIRRPSRQLAPNKPS
